Results: PMC12483565, “CBFβ-SMMHC–driven leukemogenesis requires enhanced RUNX1-DNA binding affinity in mice”

Molecular target: runt homology domain (RHD) of hRUNX1c (human)
Assay: BLI; biotinylated RHD loaded on streptavidin biosensors; CBFβ, CBFβ-SMMHC or mutants in solution at varying concentrations (50-600 nM); Octet RED96e; 20 mM Tris-HCl pH 8.0, 100 mM KCl, 1 mM EDTA, 1 mM DTT, 0.02% Tween 20; global fit

For CBFβ-SMMHC (from UniProt Q13951 1-165), the Kd was 0.013 µM.

“core-binding factor β (CBFβ) (from UniProt Q13951-2 1-187) (natural protein)” was tested, and the Kd was 0.0647 µM.
